Measurements: patent US8652790B2, “Conformational entropy in molecular recognition” (The Trustees of the University of Pennsylvania, priority 2007, dated 2014)

Assays:
calmodulin [1] = biological target: T1, calmodulin (Homo sapiens, UniProt P0DP23); assay: Change in conformational entropy of calmodulin on binding a target domain, estimated from methyl O^2axis (harmonic oscillator model); conditions: 308 K; for TSconf: absolute conformational entropy of calmodulin in complex; for −TΔSconf: calmodulin upon binding target domain, free CaM reference state; for TSrotamer(fast) / TSrotamer(slow): classical entropy; for TSrotamer(fast): fast rotamer interconversion; for TSrotamer(slow): slowly interconverting conformers; for TSharm: motion within a rotameric well, simple harmonic oscillator
From the text: Guided by Karplus and co-workers (see Karplus M et al. (1987)), the present approach connects the change in internal protein dynamics to the conformational entropy, describing the protein as a disjoint multidimensional harmonic well: Sconf=ΣpiS^hi−kBΣpilnpi (2) where S^hi represents the entropy manifested by fast intra-well motion and the second term corresponds to the classical conformational entropy arising from the i=1 . . . N distinct conformations. Here S^hi is obtained from interpretation of local order parameters, which is model-dependent. The present approach finds its modern roots in the work described in Akke, M., Bruschweiler, R. & Palmer, A. G. NMR order parameters and free-energy—an analytical approach and its application to cooperative Ca^2+ binding by calbindin-D(9k). J. Am. Chem. Soc. 115, 9832-9833 (1993), in which a specific motional model (potential energy function) is used to provide a parametric relationship between what is measured, the squared generalized order parameter, and what is sought, a thermodynamic quantity such as the entropy.
A simple harmonic oscillator treatment was selected to make this connection. Li, Z., Raychaudhuri, S. & Wand, A. J. Insights into the local residual entropy of proteins provided by NMR relaxation. Prot. Sci. 5, 2647-2650 (1996). It is important to note that the absolute entropies obtained in this way are very dependent on the details of the potential energy function but that differences in entropy calculated from changes in O^2 are fairly insensitive to the model used. Li, Z, et al. (1996); Lee, A. L. et al. Temperature dependence of the internal dynamics of a calmodulin peptide complex. Biochemistry 41, 13814-13825 (2002). As the reference state for obtaining ΔSconf we use calcium-saturated calmodulin. The second term of equation (2) represents classical entropy arising from the local heterogeneity of side-chain conformers. This can be manifested on a range of timescales. […] This was interpreted as classical entropy with the population of each state (pi) estimated from the intensity of cross peaks. […] Lee, A. L. et al. (2002). This also represents conformational entropy and was estimated using a previously described model. Id.
The change in conformational entropy of calmodulin on binding a target domain was estimated as the sum of three terms: ΔSconf=ΔSharm+ΔSrotamer(fast)+ΔSrotamer(slow). Sharm was obtained from O^2axis parameters using a harmonic oscillator model. Li, Z., Raychaudhuri, S. & Wand, A. J. Insights into the local residual entropy of proteins provided by NMR relaxation. Prot. Sci. 5, 2647-2650 (1996). Free calcium-saturated calmodulin was used as the reference state in site-to-site comparisons. To normalize the unequal number of resolved sites among the complexes, the average methyl order parameter within a complex was assigned to each unresolved site of that complex. A classical entropy term ΔSrotamer(fast) was added to represent minor conformers that are sampled owing to fast rotameric interconversion. Lee, A. L. et al. Temperature dependence of the internal dynamics of a calmodulin peptide complex. Biochemistry 41, 13814-13825 (2002). For the small number of sites having multiple conformations in slow exchange on the NMR chemical shift timescale, an additional classical entropy contribution ΔSrotamer(slow) was calculated on the basis of measured intensities. Populations of the three motional classes were obtained using nonlinear regression of a three gaussian model to the observed order parameter distributions. […]

calmodulin [2] = biological target: T1, calmodulin; assay: Uncalibrated estimate of conformational entropy of binding from methyl group dynamics of CaM and target domain; design: made in house; conditions: for Δ O^2axis Target: O^2axis of 0.101 assumed for the free target domain; for Δ O^2axis CaM: free CaM is the reference state; for ΔSfast^conf: harmonic oscillator plus fast minor rotamer states; for ΔStotal^conf: includes classical term from slow-exchange minor cross peaks; for Normalized Δ O^2axis: normalized to number of amino acids in calmodulin (148) and target domain
From the text: Using deuterium NMR relaxation methods, fast motion of the methyl-bearing side-chains of the target domains in the six CaM complexes were examined. Muhandiram, D. R. et al., Measurement of H-2 T-1 and T-1p relaxation-times in uniformly C-13-Labeled and fractionally H-2-labeled proteins in solution. J. Am. Chem. Soc. 117, 11536-11544 (1995).
Initially estimates of the conformational entropy of the target domains to the free energy of binding to CaM was obtained using the simple harmonic oscillator model. Li, Z., Raychaudhuri, S., & Wand, A. J., Insights into the local residual entropy of proteins provided by NMR relaxation. Prot. Sci. 5, 2647-2650 (1996). It is assumed that the dynamics of the free unstructured target domain are uniform and correspond to an O^2axis of 0.1. […] This was estimated using a previously described model. Lee, A. L. et al., Temperature dependence of the internal dynamics of a calmodulin peptide complex. Biochemistry 41, 13814-13825 (2002). […] Such heterogeneity would correspond to conformational entropy contributed by states that are not averaged on the NMR chemical shift timescale.
To compare dynamics in the various complexes, we employ a normalization procedure to account for variation in the number of methyl sites in CaM whose motion could be quantified and to account for the fact that, although fully resolved, the number of residues in the target domains ranges between 20 and 26. A simple average was employed. The apparent change in conformational entropy was then calculated as above. To complete the solution of equation (5), the binding entropies obtained by isothermal titration calorimetry were used and calculated the change in solvent entropy using the known structures of free CaM and the five complexes. Kainosho, M. et al., Optimal isotope labelling for NMR protein structure determinations. Nature 440, 52-57 (2006); Aoyagi, M et al., Structural basis for endothelial nitric oxide synthase binding to calmodulin. The EMBO journal 22, 766-775 (2003); Meador, W. E., Means, A. R., & Quiocho, F. A., Target enzyme recognition by calmodulin: 2.4 A structure of a calmodulin-peptide complex. […] Nat. Struct. Biol. 6, 819-824 (1999); Valentine, K. G. et al., The crystal structure and internal dynamics of calmodulin complexed with the calmodulin binding domain of neuronal nitric oxide synthase. Biochemistry, submitted (2007). The empirically determined relationship between changes in accessible surface area and the entropy of solvent is employed. Hilser, V. J. et al., A statistical thermodynamic model of the protein ensemble. Chem. Rev. 106, 1545-1558 (2006). The change in solvent entropy by assuming an extended fully solvated structure for the dissociated domains (see Methods) was calculated. […] Gaboriaud, C. et al., Hydrophobic cluster analysis: an efficient new way to compare and analyse amino acid sequences. FEBS letters 224, 149-155 (1987). […] The surface area of a sphere of equivalent volume of the side-chains in the putative hydrophobic cluster was used as a basis for the solvent entropy calculation. A further correction for the reduction in conformational entropy of the compact free CaMKKα(p) target domain was also applied (see Methods). […] Marlow, M. S. & Wand, A. J., Conformational dynamics of calmodulin in complex with the calmodulin-dependent kinase kinase alpha calmodulin-binding domain. Biochemistry 45, 8732-8741 (2006).

**Q.** What does the source list for “(COOH-FPNGFSRKRLMSKVLIVTTWSPLL [CaMKKα(p)]”?
**A.** TSconf (calmodulin [1]): 168.6 kcal/mol; −TΔSconf (calmodulin [1]): +63.5 kJ/mol; TSrotamer(fast) (calmodulin [1]): 23.5 kcal/mol; TSrotamer(slow) (calmodulin [1]): 2.25 kcal/mol; TSharm (calmodulin [1]): 142.9 kcal/mol; Δ O^2axis Target (calmodulin [2]): 0.329; Δ O^2axis CaM (calmodulin [2]): 0.096; ΔSfast^conf (calmodulin [2]): 48.2921 kcal/mol; ΔStotal^conf (calmodulin [2]): 49.7978 kcal/mol; Normalized Δ O^2axis (calmodulin [2]): 22.632

**Q.** How did the TSconf (calmodulin [1]) turn out when “AKSKWKQAFNATAVVRHMRKLQ (listed as Homo sapiens) [CaMKI(p)]” was run?
**A.** 168 kcal/mol

**Q.** And the “−TΔSconf” value (calmodulin [1])?
**A.** +66.0 kJ/mol

**Q.** What about the “TSrotamer(fast)” value (calmodulin [1]) of the same substance?
**A.** 22.6 kcal/mol

**Q.** What about the “TSrotamer(slow)” value (calmodulin [1]) of the same substance?
**A.** 3.59 kcal/mol

**Q.** And the TSharm (calmodulin [1])?
**A.** 141.8 kcal/mol

**Q.** And the “Δ O^2axis Target” value (calmodulin [2])?
**A.** 0.555

**Q.** What about the “Δ O^2axis CaM” value (calmodulin [2]) of the same substance?
**A.** 0.107

**Q.** What about the “ΔSfast^conf” value (calmodulin [2]) of the same substance?
**A.** 60.2916 kcal/mol

**Q.** What about the “ΔStotal^conf” value (calmodulin [2]) of the same substance?
**A.** 63.1334 kcal/mol

**Q.** What about the “Normalized Δ O^2axis” value (calmodulin [2]) of the same substance?
**A.** 28.046

**Q.** For KRRAIGFKKLAEAVKFSAKLMGQ [nNOS(p)], which TSconf (calmodulin [1]) is on record?
**A.** 180 kcal/mol

**Q.** And the “−TΔSconf” value (calmodulin [1])?
**A.** +15.9 kJ/mol

**Q.** And the “TSrotamer(fast)” value (calmodulin [1])?
**A.** 26.31 kcal/mol

**Q.** And the “TSrotamer(slow)” value (calmodulin [1])?
**A.** 5.93 kcal/mol

**Q.** And the TSharm (calmodulin [1])?
**A.** 147.8 kcal/mol

**Q.** What about the “Δ O^2axis Target” value (calmodulin [2]) of the same substance?
**A.** 0.528

**Q.** What about the “Δ O^2axis CaM” value (calmodulin [2]) of the same substance?
**A.** 0.049

**Q.** What about the “ΔSfast^conf” value (calmodulin [2]) of the same substance?
**A.** 41.5545 kcal/mol

**Q.** And the “ΔStotal^conf” value (calmodulin [2])?
**A.** 46.7409 kcal/mol

**Q.** What about the “Normalized Δ O^2axis” value (calmodulin [2]) of the same substance?
**A.** 19.396

**Q.** How did the TSconf (calmodulin [1]) turn out when QTEKMWQRLKGILRSLVKQ [PDE(p)] was run?
**A.** 177.9 kcal/mol

**Q.** And the “−TΔSconf” value (calmodulin [1])?
**A.** +24.9 kJ/mol

**Q.** What about the “TSrotamer(fast)” value (calmodulin [1]) of the same substance?
**A.** 25.96 kcal/mol

**Q.** And the “TSrotamer(slow)” value (calmodulin [1])?
**A.** 3.56 kcal/mol

**Q.** What about the TSharm (calmodulin [1]) of the same substance?
**A.** 148.3 kcal/mol

**Q.** For RKKTFKEVANAVKISASLMG [eNOS(p)], which TSconf (calmodulin [1]) is on record?
**A.** 172.8 kcal/mol

**Q.** And the “−TΔSconf” value (calmodulin [1])?
**A.** +46.1 kJ/mol

**Q.** And the “TSrotamer(fast)” value (calmodulin [1])?
**A.** 24.21 kcal/mol

**Q.** And the “TSrotamer(slow)” value (calmodulin [1])?
**A.** 3.97 kcal/mol

**Q.** What about the TSharm (calmodulin [1]) of the same substance?
**A.** 144.6 kcal/mol

**Q.** And the “Δ O^2axis Target” value (calmodulin [2])?
**A.** 0.567

**Q.** And the “Δ O^2axis CaM” value (calmodulin [2])?
**A.** 0.081

**Q.** What about the “ΔSfast^conf” value (calmodulin [2]) of the same substance?
**A.** 50.278 kcal/mol

**Q.** And the “ΔStotal^conf” value (calmodulin [2])?
**A.** 53.5045 kcal/mol

**Q.** What about the “Normalized Δ O^2axis” value (calmodulin [2]) of the same substance?
**A.** 23.328
